Data: the supplement of paper PMC10567573

B1: CDC34 (parent)
chain: GGYFKARLKFPIDYPYSPPAFRFL
B2: FAM9B (parent)
chain: EDLTAKRKRMKMDKTCSKTKNKSK

Variants of: B1
Assay: protein stability index of a GFP-peptide fusion (GPS, HEK-293T) (PSI 1-6); higher = more stable
Details: c terminus: a fixed tail appended
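Note: lentivirally expressed fusions sorted by FACS into six bins by GFP to DsRed ratio, PSI derived from sequencing read proportions per bin multiplied by bin number.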

Variant	protein stability index
GGYFKARLKFPIDYPYSPPAFRHL [F23H]	4.27
GGYFKARLKFPIDYPYSPPAFRAL [F23A]	2.82
GGYFKARLKFPIDYPYSPPAFRVL [F23V]	3.6
GGYFKARLKFPIDYPYSPPAFRIL [F23I]	2.08
GGYFKARLKFPIDYPYSPPAFRGL [F23G]	1.09
GGYFKARLKFPIDYPYSPPAFRNL [F23N]	2.95
GGYFKARLKFPIDYPYSPPAFRWL [F23W]	1.43
GGYFKARLKFPIDYPYSPPAFRTL [F23T]	2.74
GGYFKARLKFPIDYPYSPPAFRQL [F23Q]	1.48
GGYFKARLKFPIDYPYSPPAFRSL [F23S]	2.95
GGYFKARLKFPIDYPYSPPAFRDL [F23D]	2.71
GGYFKARLKFPIDYPYSPPAFREL [F23E]	2.19
GGYFKARLKFPIDYPYSPPAFRML [F23M]	2.48
GGYFKARLKFPIDYPYSPPAFRYL [F23Y]	1.26
GGYFKARLKFPIDYPYSPPAFRKL [F23K]	2.8
GGYFKARLKFPIDYPYSPPAFRRL [F23R]	2.42
GGYFKARLKFPIDYPYSPPAFRLL [F23L]	1.54
GGYFKARLKFPIDYPYSPPAFRPL [F23P]	3.15
GGYFKARLKFPIDYPYSPPAFEFL [R22E]	2.58
GGYFKARLKFPIDYPYSPPAFNFL [R22N]	2.73
GGYFKARLKFPIDYPYSPPAFPFL [R22P]	2.62
GGYFKARLKFPIDYPYSPPAFDFL [R22D]	3.74
GGYFKARLKFPIDYPYSPPAFIFL [R22I]	2.74
GGYFKARLKFPIDYPYSPPAFVFL [R22V]	4.1
GGYFKARLKFPIDYPYSPPAFMFL [R22M]	3
GGYFKARLKFPIDYPYSPPAFLFL [R22L]	2.97
GGYFKARLKFPIDYPYSPPAFFFL [R22F]	3.63

Variant	protein stability index
GGYFKARLKFPIDYPYSPPAFYFL [R22Y]	2.7
GGYFKARLKFPIDYPYSPPAFGFL [R22G]	2.78
GGYFKARLKFPIDYPYSPPAFTFL [R22T]	2.52
GGYFKARLKFPIDYPYSPPAFCFL [R22C]	4.57
GGYFKARLKFPIDYPYSPPAFSFL [R22S]	2.8
GGYFKARLKFPIDYPYSPPAFQFL [R22Q]	2.65
GGYFKARLKFPIDYPYSPPAFAFL [R22A]	4.99
GGYFKARLKFPIDYPYSPPAFHFL [R22H]	2.87
GGYFKARLKFPIDYPYSPPAFKFL [R22K]	2.74
GGYFKARLKFPIDYPYSPPAVRFL [F21V]	3.33
GGYFKARLKFPIDYPYSPPATRFL [F21T]	2.67
GGYFKARLKFPIDYPYSPPAYRFL [F21Y]	1.53
GGYFKARLKFPIDYPYSPPAWRFL [F21W]	3.02
GGYFKARLKFPIDYPYSPPAFRFA [L24A]	3.55
GGYFKARLKFPIDYPYSPPAFRFK [L24K]	3.77
GGYFKARLKFPIDYPYSPPAFRFT [L24T]	3.35
GGYFKARLKFPIDYPYSPPAFRFN [L24N]	3.21
GGYFKARLKFPIDYPYSPPAFRFF [L24F]	2.89
GGYFKARLKFPIDYPYSPPAFRFY [L24Y]	2.4
GGYFKARLKFPIDYPYSPPAFRFR [L24R]	3.94
GGYFKARLKFPIDYPYSPPAFRFM [L24M]	2.76
GGYFKARLKFPIDYPYSPPAFRFV [L24V]	3.43
GGYFKARLKFPIDYPYSPPAFRFQ [L24Q]	2.95
GGYFKARLKFPIDYPYSPPAFRFD [L24D]	2.33
GGYFKARLKFPIDYPYSPPAFRFW [L24W]	2.05
GGYFKARLKFPIDYPYSPPAFRFE [L24E]	1.76
GGYFKARLKFPIDYPYSPPAFRFG [L24G]	2.44

Variants of: B2
Assay: as above
Details: c terminus: a fixed tail appended

Variant	protein stability index
EDLTDKRKRMKMDKTCSKTKNKSK [A5D]	5.08
EDLTTKRKRMKMDKTCSKTKNKSK [A5T]	4.51
EDLTYKRKRMKMDKTCSKTKNKSK [A5Y]	5.13
EDLTPKRKRMKMDKTCSKTKNKSK [A5P]	4.92
EDLTLKRKRMKMDKTCSKTKNKSK [A5L]	5.37
EDLTRKRKRMKMDKTCSKTKNKSK [A5R]	5.23
EDLTQKRKRMKMDKTCSKTKNKSK [A5Q]	4.71
EDLTMKRKRMKMDKTCSKTKNKSK [A5M]	5.2
EDLTKKRKRMKMDKTCSKTKNKSK [A5K]	4.15
EDLTCKRKRMKMDKTCSKTKNKSK [A5C]	4.05
EDLTSKRKRMKMDKTCSKTKNKSK [A5S]	5.5
EDLTFKRKRMKMDKTCSKTKNKSK [A5F]	4.42
EDLTNKRKRMKMDKTCSKTKNKSK [A5N]	4.33
EDLTWKRKRMKMDKTCSKTKNKSK [A5W]	5.3
EDLTHKRKRMKMDKTCSKTKNKSK [A5H]	5.05
EDLTGKRKRMKMDKTCSKTKNKSK [A5G]	5.47
EVLTAKRKRMKMDKTCSKTKNKSK [D2V]	4.86
ESLTAKRKRMKMDKTCSKTKNKSK [D2S]	4.63
EFLTAKRKRMKMDKTCSKTKNKSK [D2F]	3.65
EALTAKRKRMKMDKTCSKTKNKSK [D2A]	5.42

Variant	protein stability index
ERLTAKRKRMKMDKTCSKTKNKSK [D2R]	4.43
EILTAKRKRMKMDKTCSKTKNKSK [D2I]	4.16
EYLTAKRKRMKMDKTCSKTKNKSK [D2Y]	3.69
EPLTAKRKRMKMDKTCSKTKNKSK [D2P]	5.51
EELTAKRKRMKMDKTCSKTKNKSK [D2E]	5.3
ELLTAKRKRMKMDKTCSKTKNKSK [D2L]	4.08
ETLTAKRKRMKMDKTCSKTKNKSK [D2T]	4.92
EMLTAKRKRMKMDKTCSKTKNKSK [D2M]	4.44
EQLTAKRKRMKMDKTCSKTKNKSK [D2Q]	5.04
EHLTAKRKRMKMDKTCSKTKNKSK [D2H]	5.01
ENLTAKRKRMKMDKTCSKTKNKSK [D2N]	4.63
EKLTAKRKRMKMDKTCSKTKNKSK [D2K]	4.9
ECLTAKRKRMKMDKTCSKTKNKSK [D2C]	4.11
EGLTAKRKRMKMDKTCSKTKNKSK [D2G]	5.21
EWLTAKRKRMKMDKTCSKTKNKSK [D2W]	3.49
EDLNAKRKRMKMDKTCSKTKNKSK [T4N]	4.8
EDLWAKRKRMKMDKTCSKTKNKSK [T4W]	4.38
EDLKAKRKRMKMDKTCSKTKNKSK [T4K]	5.54
EDLCAKRKRMKMDKTCSKTKNKSK [T4C]	4.52
EDLLAKRKRMKMDKTCSKTKNKSK [T4L]	4.6
